Laboratory results from paper PMC5149108.

Experiments:
Test in all cases: fluorescence anisotropy
A1-FL (hnRNPA1) = A1-FL (hnRNPA1) (UniProt P09651 1-251+304-372, internal_change)
A1-RRM = A1-RRM (UniProt P09651 14-184)
A1-LCD = A1-LCD (UniProt P09651 186-251+304-372, internal_change)

Measured: binding result

GGGCCCCCGGGUACCGAGCUGCUAAUCAAAACAAAACAAAAGCU (ssRNA) [fl-RNA44]
binds: all assays above
